Here are results for ten molecules from US20250388696A1 (NAVIGO PROTEINS, published 2025).

Substitutions are numbered along the chain they refer to. Where no end group is shown, it is not given here.

Experiment [1] has as its target T1, human serum albumin (human, UniProt P02768 25-609).
T1 construct: also called HSA
Nature of the experiment: SPR, HSA immobilised on the chip, pH 7.3, 1:1 Langmuir fit. Here is the method: (§1) Recombinant protein A, HSA, MSA or target (either ED-B or Her2) was immobilized on a High Capacity Amine sensor chip (Bruker) after NHS/EDC activation with a Sierra SPR-32 system (Bruker). The chip was equilibrated with SPR running buffer (PBS 0.05%, Tween pH 7.3). Injection of ethanolamine after target immobilization was used to block free NHS groups. To determine the binding of fusion proteins to FAP, the Fc-tagged target was injected with 60 or 30 nM to Protein A coupled spots followed by the injection of fusion proteins.
(§2) Binding proteins were applied to the chip in serial dilutions with a flow rate of 30 μl/min. Upon binding, analyte accumulated on the surface increasing the refractive index. This change in the refractive index was measured in real time and plotted as response or resonance units versus time. The association was performed for 120 seconds and the dissociation for 180 seconds. After each run, the chip surface was regenerated with 30 μl regeneration buffer (10 mM glycine pH 2.0 or pH 1.5) and equilibrated with running buffer. Binding studies were carried out using the Sierra SPR-32 system (Bruker); data evaluation was operated via the Sierra Analyser software, provided by the manufacturer, by the use of the Langmuir 1:1 model (RI=0).

Experiment [2] has as its target T2, hFAP-Fc (human, UniProt Q12884 26-760, limits assumed).
T2 construct: also called Fc-tagged target (FAP)
T2 sequence (looked up): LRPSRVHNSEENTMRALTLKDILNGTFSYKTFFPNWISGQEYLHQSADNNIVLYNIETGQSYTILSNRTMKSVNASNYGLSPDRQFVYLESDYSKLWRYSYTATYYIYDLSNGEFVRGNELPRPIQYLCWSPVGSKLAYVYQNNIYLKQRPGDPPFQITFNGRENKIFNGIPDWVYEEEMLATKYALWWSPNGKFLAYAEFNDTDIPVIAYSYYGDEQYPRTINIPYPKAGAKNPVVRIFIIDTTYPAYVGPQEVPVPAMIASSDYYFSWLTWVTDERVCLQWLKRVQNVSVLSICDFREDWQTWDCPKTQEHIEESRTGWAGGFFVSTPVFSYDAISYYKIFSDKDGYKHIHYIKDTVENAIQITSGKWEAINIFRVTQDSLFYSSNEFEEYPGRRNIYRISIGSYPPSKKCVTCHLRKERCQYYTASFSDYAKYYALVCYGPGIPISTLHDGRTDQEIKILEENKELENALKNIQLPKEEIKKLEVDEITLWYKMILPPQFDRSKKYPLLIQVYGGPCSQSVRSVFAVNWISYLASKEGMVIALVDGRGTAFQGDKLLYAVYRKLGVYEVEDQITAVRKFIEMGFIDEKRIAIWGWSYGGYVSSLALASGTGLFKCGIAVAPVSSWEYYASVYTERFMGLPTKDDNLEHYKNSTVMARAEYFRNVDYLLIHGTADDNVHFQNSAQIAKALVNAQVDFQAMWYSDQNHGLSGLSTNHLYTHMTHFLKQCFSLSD
Nature of the experiment: SPR, Fc-tagged FAP captured on immobilised protein A, pH 7.3, 1:1 Langmuir fit. Here is the method: as §1, §2
For orientation: SPR reads the build-up and loss of mass on a sensor chip optically.

Experiment [3] has as its target T3, mouse serum albumin (mouse, UniProt P07724 25-608).
T3 construct: also called MSA
Nature of the experiment: SPR, MSA immobilised. Here is the method: as §1, §2

For experiment [4], the target named is T1, human serum albumin. Nature of the experiment: SPR, HSA immobilised. Here is the method:
as §1, §2

The target of experiment [5] is T4, Her2-Fc (human, UniProt P04626 23-652).
T4 construct: Coated in ELISA
The experiment is described as follows: ELISA on coated Her2-Fc; 24 h in human serum at 37 C. Here is the method:
(§3) High binding plates (Greiner, 781061) were immobilized with 2.5 μg/ml hFAP-Fc or 1.2 μg/ml Her2-Fc over night at 4° C. Dilution series of 3 μM to 0.07 pM of fusion proteins with binding specifically to Her2 were incubated in 100% human serum or 100% mouse serum for 24 h at 37° C. Dilution series of 3 µM to 0.2 pM or 1 μM to 0.01 fM of fusion proteins with binding specifically to hFAP were incubated in 100% human serum or 100% mouse serum for 24 h at 37° C. ELISA-plates were washed three times with PBST (PBS+0.1% Tween) and blocked with 3% BSA/0.5% Tween/PBS up to 2 h at room temperature (rt). After preincubation for 0 h or 24 h in the presence of serum the dilution series were incubated on ELISA-plates for up to 1 h at rt. Wells were washed with PBST and incubated with biotinylated anti-ubiquitin-antibody (1:300) for up to 1 h at rt. The binding was visualized with Streptavidin-HRP (1:5.000).
(§4) The fusion proteins comprise the albumin binding domain (referred to as HED) and the targeting moiety.
(An ELISA detects its analyte on a solid surface through an enzyme-linked reagent.)

Experiment [6] concerns the target T4, Her2-Fc. The experiment is described as follows: ELISA on coated Her2-Fc; 24 h in mouse serum at 37 C. Here is the method: as §3, §4
The target in experiment [7] is T4, Her2-Fc. Nature of the experiment: ELISA on coated Her2-Fc; after 24 h in human serum at 37 C. Here is the method:
as §3, §4

Experiment [8] deals with T4, Her2-Fc. Nature of the experiment: ELISA on coated Her2-Fc; 0 h in human serum. Here is the method: as §3, §4
In experiment [9] the target is T4, Her2-Fc. The experiment is described as follows: ELISA on coated Her2-Fc; after 24 h in mouse serum at 37 C. Here is the method:
as §3, §4

The target in experiment [10] is T1, human serum albumin. The experiment is described as follows: SPR, HSA immobilised on the chip, pH 7.3, 1:1 Langmuir fit [continued]. Here is the method: as §1, §2
The target in experiment [11] is T5, Her2 (immobilised on the SPR chip) (human, UniProt P04626 23-652, limits assumed).
T5 construct: construct not described; also called human epidermal growth factor receptor 2
The experiment is described as follows: SPR, Her2 immobilised on the chip, pH 7.3, 1:1 Langmuir fit [continued]. Here is the method: as §1, §2

Experiment [12] has as its target T4, Her2-Fc. Nature of the experiment: ELISA on coated Her2-Fc; KD 24 h against KD 0 h, human serum. Here is the method: as §3, §4
Experiment [13] deals with T4, Her2-Fc. Nature of the experiment: ELISA on coated Her2-Fc; KD 24 h against KD 0 h, mouse serum. Here is the method:
as §3, §4

Experiment [14] addresses T6, Her2 expressed on Sk-Br-3 cells (human, UniProt P04626 23-1255).
T6 construct: whole, on cells; also called human epidermal growth factor receptor 2
The experiment is described as follows: flow cytometry, dilution series on Sk-Br-3 cells. Here is the method:
Her2 expressing Sk-Br-3-cells and HEK293-hFAP overexpressing cells were thawed, washed with medium containing FCS, subsequently washed with FACS blocking buffer (PBS/0.1% Sodium Azide/3% FCS) and 100 μl seeded in 96-well round bottom plates with a density of 1×10⁶ cells/ml. Dilution series from 10 µM to 8.6 fM (CID 217781, CID 217787) and a dilution series of 3 µM to 0.2 μM (CID 218466, CID 218467, 218512, CID 218513, CID 218514, CID 218515, CID 218516) were incubated on Her2-expressing Sk-Br-3-cells and dilution series from 1 μM to 0.07 μM of fusion proteins 218690 and 218702 were incubated on hFAP-overexpressing HEK293-cell line for 45 min at 4° C. After centrifugation the supernatants were removed and cells were washed with FACS blocking buffer and 100 μl/well rabbit anti-Strep-Tag antibody (GenScript; A00626), 1:300 diluted in FACS blocking buffer were added. After removal of the primary antibody goat anti-rabbit IgG Alexa Fluor 488 antibody (Invitrogen; A4008) was applied in a 1:1000 dilution in FACS blocking buffer. Flow cytometry measurement was conducted on the Guava easyCyte 5HT device from Merck-Millipore at excitation wavelength 488 nm and emission wavelength 525/30 nm. The * in table 2 refers to a fusion protein with the albumin binding domain as dimer (homo-dimer) and/or the targeting moiety as dimer.

Experiment [15] addresses T4, Her2-Fc. Nature of the experiment: ELISA on coated Her2-Fc; 0 h in mouse serum. Here is the method: as §3, §4

The term Kd denotes the constant that tells how readily two partners part at equilibrium. Read a low Kd as tighter binding.

T1 sequence (P02768 25-609 limits assumed): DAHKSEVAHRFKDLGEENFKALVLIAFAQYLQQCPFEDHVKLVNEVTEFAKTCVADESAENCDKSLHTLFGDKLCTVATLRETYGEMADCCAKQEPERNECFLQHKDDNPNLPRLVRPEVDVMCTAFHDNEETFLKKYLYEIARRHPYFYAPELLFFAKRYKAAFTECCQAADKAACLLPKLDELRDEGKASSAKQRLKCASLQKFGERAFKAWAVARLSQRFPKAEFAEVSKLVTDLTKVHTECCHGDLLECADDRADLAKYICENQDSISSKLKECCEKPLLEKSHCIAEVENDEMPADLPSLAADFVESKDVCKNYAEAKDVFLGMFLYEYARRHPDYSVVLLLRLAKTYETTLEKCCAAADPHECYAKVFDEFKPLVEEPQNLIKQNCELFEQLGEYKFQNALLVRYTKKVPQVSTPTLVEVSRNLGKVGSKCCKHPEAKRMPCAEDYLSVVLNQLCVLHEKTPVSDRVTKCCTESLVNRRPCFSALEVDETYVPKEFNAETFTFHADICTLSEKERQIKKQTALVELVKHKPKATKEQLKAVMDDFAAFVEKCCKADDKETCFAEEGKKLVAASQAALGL

B1: fusion protein 218692 (designed binder, not shown: small tags and cut ends)
chain (part 1 of 2): not shown
chain (part 2 of 2): LAEAKVLAIKELDKAGISNYYFNLINNAKTVEGVKDLKAQIVAA
notes: also called CID 218692
As for B1, the Kd in experiment [1] worked out at 5 nM; in experiment [2] it was 4 nM.

B2: fusion protein 218687 (designed binder, not shown: small tags and cut ends)
chain (part 1 of 2): not shown
chain (part 2 of 2): LAEAKVLALKELDKYGISNYYKNLINNAKTVEGVKALKEAIVAA
notes: also called CID 218687
For B2, the Kd in experiment [1] came out at 0.9 nM; in [2] it was 3.4 nM.

B3: Fusion proteins with albumin binding domain c42 (SEQ ID NO: 34) (designed binder, not shown: small tags and cut ends)
chain: B2 chain (part 2 of 2) with V31I, G33S, E39D, A40E
modifications: also: part of fusion protein, targeting moiety, linker, tag and order not given here
With B3, the Kd in experiment [3] and in experiment [4] was not below 100 nM in each case.

B4: Fusion proteins with albumin binding domain c45 (SEQ ID NO: 35) (designed binder, not shown: small tags and cut ends)
chain: B2 chain (part 2 of 2) with Y20G, V31I, E39D, A40E
modifications: also: part of fusion protein, targeting moiety, linker, tag and order not given here
Consider B4, for which the Kd in experiment [3] and in experiment [4] was not below 100 nM in each case.

B5: Fusion proteins with albumin binding domain c50 (SEQ ID NO: 38) (designed binder, not shown: small tags and cut ends)
chain: B2 chain (part 2 of 2) with Y21G, V31I, K35E, E39D, V42L
modifications: also: part of fusion protein, targeting moiety, linker, tag and order not given here
B5: the Kd in experiment [3] and in experiment [4] was not below 100 nM each time.

B6: Fusion proteins with albumin binding domain c49 (SEQ ID NO: 37) (designed binder, not shown: small tags and cut ends)
chain: B2 chain (part 2 of 2) with Y20D, V31I, K35E, E39D, V42L
modifications: also: part of fusion protein, targeting moiety, linker, tag and order not given here
Consider B6, for which the Kd in experiment [3] and in experiment [4] was not below 100 nM in each case.

B7: fusion protein 218708 (designed binder, not shown: small tags and cut ends)
chain (part 1 of 2): not shown
chain (part 2 of 2): LAEAKVLALKELDKYGISNYYKNLINNAKTVEGVKALKEAIVAALP
notes: also called CID 218708
B7: the Kd came out at 7.3 nM in [1] and 4.4 nM in [2].

B8: fusion protein 218513 (designed binder, not shown: small tags and cut ends)
chain (part 1 of 2): not shown
chain (part 2 of 2): B2 chain (part 2 of 2) with K35E, V42L
notes: also called CID 218513
With B8, the Kd was 0.43 nM in experiment [5]; 0.31 nM in experiment [6]; 0.34 nM in experiment [8]; 1.9 nM in experiment [10]; 3.3 nM in experiment [11]; 2.48 nM in experiment [14]. Moreover, the dissociation constant Kd in [15] was 0.25 nM. Besides, the “max binding after 24 h [%]” value is 100% in experiment [7] and 106% in experiment [9]. Further, the results for the “increase of KD vs target [fold]” value in experiment [12] and in experiment [13] were 1.27 fold and 1.23 fold, respectively.

B9: fusion protein 218703 (designed binder, not shown: small tags and cut ends)
chain (part 1 of 2): not shown
chain (part 2 of 2): B2 chain (part 2 of 2) with V31I, E39A, A40Q
notes: also called CID 218703
B9: the Kd came to 5.9 nM in experiment [1] and 5.8 nM in [2].

B10: fusion protein 218514 (designed binder, not shown: small tags and cut ends)
chain (part 1 of 2): not shown
chain (part 2 of 2): B2 chain (part 2 of 2) with V31I, K35E, E39D, V42L
notes: also called CID 218514
Take B10: the Kd turned out to be 0.3 nM in experiment [5]; 0.25 nM in experiment [6]; 0.29 nM in experiment [8]; 1.8 nM in experiment [10]; 3.3 nM in experiment [11]; 2.19 nM in experiment [14]. In experiment [15], this molecule came in with a Kd of 0.21 nM. Besides, the figures for the “max binding after 24 h [%]” value in [7] and in [9] were 96.4% and 100%, respectively. The entries for the “increase of KD vs target [fold]” value in experiment [12] and in experiment [13] were 1.06 fold and 1.19 fold, respectively.
